Test results from patent publication US20220348877A1, “GENERATION OF QUIESCENT CARDIAC FIBROBLASTS FROM HUMAN INDUCED PLURIPOTENT STEM CELLS FOR IN VITRO MODELING OF CARDIAC FIBROSIS” (The Board of Trustees of the Leland Stanford Junior …, priority 2019, published 2022).

Key:
primary CFs = assay: In vitro wound-healing assay, primary CFs; type: cell-based, human; conditions: 25 ng/ml, 24-hour observation
Experimental: Human primary skin, cardiac, lung, bladder fibroblast, and brain pericyte cultures. Human primary cardiac fibroblasts were isolated and cultured as follows: a piece of fresh right atrial biopsy was weighed, minced into small pieces (1-2 mm^3), and digested in 6-well peri-dishes as described. Human primary cardiac fibroblasts were grown and maintained in a fibroblast growth medium (C-23025, Promocell) supplemented with 1% penicillin-streptomycin (15140-122, Gibco) in a humidified atmosphere (95% air, 5% CO2) at 37° C. The medium was renewed every 2-3 days. Cells were passaged using standard trypsinization techniques at 80-90% confluency. The same protocol was also used to isolate and culture fibroblasts from human skin and lung tissues. Primary bladder fibroblasts were purchased from Lifeline (FC-0050) and maintained in the same fibroblast growth medium. […]
In vitro wound-healing assay. The migration of human iPSC-CFs and primary CFs was determined using a Cytoselect™ 24-Well Wound Healing Assay Kit (CBA-120, Cell Biolabs). […] The cell-free areas at each time point were measured by Image-Pro Plus (version 6.0, Media Cybernetics). For quantification purposes, the wound area generated at 0 hr was set as S0, the uncovered areas captured at 12 hrs, and 24 hrs were recorded as Si (i=12 or 24). The wound closure rate was then calculated by the following equation: wound closure rate

human iPSC-CFs = assay: In vitro wound-healing assay, iPSC-CFs; type: cell-based; conditions: 25 ng/ml, 24-hour observation
Experimental: In vitro wound-healing assay. The migration of human iPSC-CFs and primary CFs was determined using a Cytoselect™ 24-Well Wound Healing Assay Kit (CBA-120, Cell Biolabs). Briefly, after confluent monolayers of CFs were formed, cells were synchronized in a low serum medium (0.5% FBS) for 24 hrs. After the wound-generating scaffold was removed from each well, cells were washed in PBS to remove residual cells in the wounded area. Cells were treated with vehicle or PDGF-BB (25 ng/ml), and images were captured using a light microscope in identical areas at baseline, 12 hrs, and 24 hrs post-treatment. The cell-free areas at each time point were measured by Image-Pro Plus (version 6.0, Media Cybernetics). For quantification purposes, the wound area generated at 0 hr was set as S0, the uncovered areas captured at 12 hrs, and 24 hrs were recorded as Si (i=12 or 24). The wound closure rate was then calculated by the following equation: wound closure rate

B1: platelet derived growth factor-BB: platelet derived growth factor-BB, migration stimulus (protein, UniProt P01127 82-190, looked up)
Platelet-derived growth …: SLGSLTIAEPAMIAECKTRTEVFEISRRLIDRTNANFLVWPPCVEVQRCSGCCNNRNVQCRPTQVQLRPVQVRKIEIVRKKPIFKKATVTLEDHLACKCETVAAARPVT
cell migration (wound closure) (primary CFs): induced cell migration | cell migration (wound closure) (human iPSC-CFs): induced cell migration
